Data: US20040052799A1, “Nucleic acid and amino acid sequences relating to Helicobacter pylori for diagnostics and therapeutics” (Astra Aktiebolag, priority 1996, published 2004)
Marks after values point to notes of the source that are not given here.

How the values were obtained:
[1] = test system: H. pylori (strain AH244); assay type: in vivo; conditions: BALB/c mice infected with strain AH244, 100 μg antigen + 10 μg CT orally, compared to control; FIGS. 3 and 4
[2] = test system: H. pylori; test: Protective oral immunization and challenge with live H. pylori, quantitative urease assay and bacterial colony counts of gastric tissue; assay type: in vivo, C57BL/6 mice
Protocol: A murine model of H. pylori infection was produced by infection of C57BL/6 mice with H. pylori Sydney strain SS1 and was used to assess the efficacy of recombinant H. pylori vac36. […] Dose-response studies have shown 100% infection rates of inbred C57BL/6 and Balb/C mice at 8 weeks post-challenge with a single inoculation of […] organisms.
The presence of H. pyloriorganisms in gastric tissue was determined by culture of gastric tissue and by a quantitative urease assay. In the latter method, a longitudinal segment of antrum, representing approximately ¼ of the total antral region was placed in 1 ml of urea broth. After 4 hr, the extent of color change resulting from urea hydrolysis and increased pH was quantiated by spectrophotometric measurement of A550 (Fox et al., Immunol. 88:400-406, 1996). The assay sensitivity is ˜10^3 H. pylori organisms. A positive (H. pylori-infected) gastric tissue was defined as that sample showing 2 standard deviations above the mean A550 value derived from a group of unchallenged uninfected age-matched control mice.
(§1) Protective activity of purified recombinant H. pylori vac36 (SEQ ID NO: 5146) antigen The ability of purified recombinant vac36 (SEQ ID NO: 5146) antigen derived from H. pylori to interfere with the establishment of an H. pylori infection was examined in mice. […]. The mice were challenged 2 weeks later on 3 consecutive days by oral administration of 10^8 H. pylori organisms. The experiment was terminated 2 weeks post-challenge, and the H. pylori infection level assessed by bacterial colony counts and by quantitative urease assays.

[3] = test system: CD4+ or CD8+ T cells and IgA containing (IgACC) plasma cells in gastric tissue; test: Local gastric immune response to immunization, immunostaining of gastric cryosections; assay type: in vivo, C57BL/6 mice
Text: Longitudinal sections of gastric tissues from the esophageal to the duodenal junction were embedded in OCT embedding compound, frozen in liquid nitrogen, and cryosections immunostained with monoclonal antibodies recognizing CD4^+ or CD8^+T cells or with antisera against mouse IgA for identification of IgA containing (IgACC) plasma cells (Pappo et al., Infect. Immun. 63:1246-1252, 1995). The degree of local gastric immune response was expressed quantitatively as the number of CD4^+, CD8^+ or IgACC cells per mm^2 of gastric region examined.
as §1

[4] = molecular target: T1, H. pylori peptidyl-propyl cis-trans isomerase (PPIase) (Helicobacter pylori, UniProt Q9ZJH5); test: PPIase enzymatic assay, α-chymotrypsin coupled, succinyl-Ala-Ala-Pro-Phe-p-nitroanilide; assay type: biochemical
T1 construct: His-Tag (N); made in house; host or cells: E. coli BL21(DE3)
T1 sequence (Q9ZJH5 whole entry, looked up): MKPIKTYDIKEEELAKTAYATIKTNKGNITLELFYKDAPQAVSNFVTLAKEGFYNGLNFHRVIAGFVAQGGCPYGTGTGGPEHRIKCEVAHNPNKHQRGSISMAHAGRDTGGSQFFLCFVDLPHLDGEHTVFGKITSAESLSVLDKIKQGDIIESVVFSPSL
Text: The assay is essentially as described by Fisher (Fischer, G., et. al. (1984) Biomed. Biochim. Acta 43:1101-1111). The assay measures the cis-trans isomerization of the Ala-Pro bond in the test peptide N-succinyl-Ala-Ala-Pro-Phe-p-nitroanilide (Sigma # S-7388, lot # 84H5805). The assay is coupled with α-chymotrypsin, where the ability of the protease to cleave the test peptide occurs only when the Ala-Pro bond is in trans. The conversion of the test peptide to the trans isomer in the assay is followed at 390 nm on a Beckman Model DU-650 spectophotometer. The data are collected every second with an average scanning of time of 0.5 second. Assays are carried out in 35 mM Hepes, pH 8.0, in a final volume of 400 ul, with 10 μM α-chymotrypsin (type 1-5 from bovine Pancreas, Sigma # C-7762, lot 23H7020) and 10 nM PPIase. To initiate the reaction, 10 μl of the substrate (2 mM N-Succinyl-Ala-Ala-Pro-Phe-p-nitroanilide in DMSO) is added to 390 μl of reaction mixture at room temperature.
The PPIase activity was assayed using the chromogenic tetrapeptide substrate succinyl-Ala-Ala-Pro-Phe-p-nitroanilide. An initial velocity of 4.9 μmole/min/mg protein was measured with the purified enzyme (FIG. 5). This corresponds to a kcat of 1.6 sec^−1 which is similar to the one obtained for the E. coli PPIase (Liu, J. and Walsh, C. T. (1990) Proc. Natl. Acad. Sci. USA 87:4028-4032) and the one from porcine kidney (Fischer, G. (1989) Nature 337:476-478).
The recombinant protein has a high catalytic efficiency of 2.06×10^9 M^−1 s^−1 when the assay is measured at 25° C. These values are one to two orders of magnitude higher than that observed for other characterized PPIases. However, in those studies, the ppiase assay was conducted at 10° C., which may account for the discrepency.

[5] = mean number of cells/mm^2 of gastric region ± SEM, immunized mice upon challenge with H. pylori

B1: SEQ ID NO: 880: H. pylori antigen of the therapeutic immunization study; number does not match the antigen list of Tables 6 and 7 (protein, listed as Helicobacter pylori)
chain: YPCHKRFSLTHSQKESPQSNSPKGVKITLILVRKFKTPSINTLSNKIAIIITCCFLSESVKLLGYSGLKNFRILRMLETSSHFLKSFRLKRYIGFLLISLALLITPFVRIDGAHLFLISFEHKQLHFLGKNL
modifications: double-stranded, circular; misc_feature (B) LOCATION 1...396; hypothetical: NO; anti-sense: NO
With B1 the “degree of colonization of the antrum” value [1] was “lower”.

B2: vac36: recombinant H. pylori outer membrane protein with terminal phenylalanine residue and C-terminal tyrosine cluster, aa SEQ ID NO: 5146, nt SEQ ID NO: 384 (protein, listed as Helicobacter pylori)
chain: MKQNLKPFKMIKENLMTQSQKVRFLAPLSLALSLSFNPVGAEEDGGFMTFGYELGQVVQQVKNPGKIKAEELAGLLNSTTTNNTNINIAGTGGNVAGTLGNLFMNQLGNLIDLYPTLKTNNLHQCGSTNSGNGATAAAATNNSPCFQGNLALYNEMVDSIKTLSQNISKNIFQGDNNTTSANLSNQLSELNTASVYLTYMNSFLNANNQAGGIFQNNTNQAYENGVTAQQIAYVLKQASITMGPSGDSGAAGAFLDAALAQHVFNSANAGNDLSAKEFTSLVQNIVNNSQNALTLANNANISNSTGYQVSYGGNIDQARSTQLLNNTTNTLAKVTALNNELKANPWLGNFAAGNSSQVNAFNGFITKIGYKQFFGENKNVGLRYYGFFSYNGAGVGNGPTYNQVNLLTYGVGTDVLYNVFSRSFGSRSLNAGFFGGIQLAGDTYISTLRNSPQLASRPTATKFQFLFDVGLRMNFGILKKDLKSHNQHSIEIGVQIPTIYNTYYKAGGAEVKYFRPYSVYWVYGYAF
modifications: misc_feature (B) LOCATION 1...527; hypothetical: YES
B2 was tested, and the “level of colonization by H. pylori, as assessed by gastric urease activity and bacterial count assays” value ([2]; C57BL/6 mice immunized orally, challenged with live H. pylori) was “significantly lower level of colonization”, the H. pylori burden ([2]; bacterial counts in gastric tissue, mean ± SEM, oral immunization 4 times weekly with 10 μg CT, challenge with 10^8 H. pylori, 2 weeks post-challenge) was 55,800 ± 12,599 colony forming units and the “Urease Activity” value ([2]; mean A550 ± SEM of duplicate antral samples, n = 10 mice/group, oral immunization 4 times weekly with 10 μg CT, challenge with 10^8 H. pylori, 2 weeks post-challenge) was 0.199 ± 0.080 A550. The “numbers of CD4+ T cells and of IgACC recruited in the gastric tissues” value ([3]; compared with unimmunized H. pylori-infected mice) was “Greater numbers”, the “CD4+ antrum” value [3, 5] was 31 ± 8 cells/mm^2 and the “CD4+ cardia” value [3, 5] was 33 ± 9^a cells/mm^2. The “CD4+ corpus” value [3, 5] was 54 ± 8 cells/mm^2, the “CD8+ antrum” value [3, 5] was 1 ± 1 cells/mm^2 and the “CD8+ cardia” value [3, 5] was 3 ± 2 cells/mm^2. For the same molecule, the “CD8+ corpus” value [3, 5] was 0 cells/mm^2, the IgACC antrum [3, 5] was 67 ± 13 cells/mm^2 and the IgACC cardia [3, 5] was 24 ± 12 cells/mm^2. It also gave an IgACC corpus [3, 5] of 79 ± 16 cells/mm^2.

B3: SEQ ID NO: 465: H. pylori antigen of the therapeutic immunization study; number does not match the antigen list of Tables 6 and 7 (protein, listed as Helicobacter pylori)
chain: MGCSFIFKKVRVYSKMLVALGLSSVLIGCAMNPSAETKKPNDAKNQQPVQTHERMTTSSEHVTPLDFNYPVHIVQAPQNHHVVGILMPRIQVSDNLKPYIDKFQDALINQIQTIFEKRGYQVLRFQDEKALNVQDKKKIFSVLDLKGWVGILEDLKMNLKDSHSPI
modifications: double-stranded, circular; misc_feature (B) LOCATION 1...498; hypothetical: NO; anti-sense: NO
For B3, the “reduction and/or eradication of the H. pylori infection (therapeutic immunization effect)” value [1] was “did not differ from control”.

B4: H. pylori PPIase: recombinant PPI from H. pylori expressed in E. coli using pET-28b (protein)
chain: FIAIIEHLNDKSLSQRFMMKPIKTYDIKEEELAKTAYATIKTNKGNITLELFYKDAPQAVSNFVTLAKEGFYNGLNFHRVIAGFVAQGGCPYGTGTGGPEHRIKCEVAHNPNKHQRGSISMAHAGRDTGGSQFFLCFVDLPHLDGEHTVFGKITSAESLSVLDKIKQGDIIESVVFSPSL
modifications: left off: small tags and cut ends
notes: recombinant PPI from H. pylori expressed in E. coli using pET-28b
B4 gave a catalytic efficiency ([4]; assay measured at 25° C.) of 2.06e+09 M⁻¹ s⁻¹, a kcat ([4]; purified recombinant enzyme) of 1.6 s⁻¹ and an initial velocity ([4]; purified recombinant enzyme, substrate succinyl-Ala-Ala-Pro-Phe-p-nitroanilide) of 4.9 μmole/min/mg protein.

B5: SEQ ID NO: 677: H. pylori antigen of the therapeutic immunization study; number does not match the antigen list of Tables 6 and 7 (protein, listed as Helicobacter pylori)
chain: SDCMALLEIIHYPSKILRTISKEVVSFDSKLHQQLDDMHETMIASEGIGLAAIQVGLPLRMLIINLPQEDGVQHKEDCLEIINPKWIETKGSIMYREGCLSVPGFYEEVERFEKVKIEYQNRFAEVKILEASELLAVAIQHEIDHLNGVLFVDKLSILKRKKFEKELKELQKKQKHK
modifications: double-stranded, circular; misc_feature (B) LOCATION 1...531; hypothetical: NO; anti-sense: NO
With B5 the “reduction and/or eradication of the H. pylori infection (therapeutic immunization effect)” value [1] was “did not differ from control”.
